# Test results: the nanobody polyreactivity screen of Harvey et al. (2022)
# Experiment: yeast display, Sf9 membrane polyspecificity reagent, FACS + sequencing; frameworks hold sequencing errors
# How it was run: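 Galactose induction of a Saccharomyces cerevisiae BJ5465 synthetic nanobody display library ran 36–48 hours. The cells were then stained for 1 hour at 4 °C with 10% biotinylated, detergent-solubilized Sf9 membrane reagent, pulled down on streptavidin microbeads and FACS-sorted into low and high (top ~1%) gates on expression and reagent-binding fluorescence. Labels for polyreactivity follow the gate of origin.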
row,Sequence,polyreactivity (PSR sort gate)
1,QVQLVESGGGLVQAGGSLRLSCAASGSTFVYYDMGWYRQAPGKERELVADISDSGGSTNYADSVKGRFTISRDNAKNTVYLQMNSLKPEDTAVYYCAADSADPTEYDYWGQGTQVTVSS,low polyreactivity
2,QVQLVESGGGLVQAGGSLRLSCAASGSTFVYYTMGWYRPAPGKERELVAAITSGTSTNYADSVKGRFTISRDNAKNTVYLQMNSLKPEDTAVYDCNAQRRGTYYWGQGTQVTVSS,high polyreactivity
3,QVQLVESGGGLVQAGGSLRLSCAASGSTFWANAMGWYRQAPGKERELVAGITWNAGSTYYADSVKGRFTISRDYAKNNVYFQMNSLNPEDTAVDYCAAYYHFQGWGPGYNSWGQGTQVTVSS,low polyreactivity
4,QVQLVESGGGLVQAGGSLRLSCAASGSTFWDYAMGWYRQAPGKERELVAAISSGGSTNYADSVKGRFTISRDNAKNTVYLQMNSLKPEDTAVYYCAVGYGGYYYWGQGTQVTVSS,high polyreactivity
5,QVQLVESGGGLVQAGGSLRLSCAASGSTFWDYAMGWYRQAPGKERELVAAISTSGGSTYYADSVKGRFTISRDNAKNTVYLQMNSLKPEDTAVYYCAAGRVRRRVWYNYWGQGTQVTVSS,high polyreactivity
6,QVQLVESGGGLVQAGGSLRLSCAASGSTFWDYAMGWYRQSPGKERELVAGITYSGTSTYYADSVKARFTISRDHAKNTVYLQMNSLKPEDTAVYYCAAESQAVGWWTPGYDYWGQGTQVTVSS,low polyreactivity
7,QVQLVESGGGLVQAGGSLRLSCAASGSTFWFNAMGGSRQAPGKERELVAAIPSRGGYTYYADSVKGRFTISRDHAKNTVYLQMNSLKPEDTAVYYCAADYRYSSRKVFHFDYWGQGTQVTVSS,low polyreactivity
8,QVQLVESGGGLVQAGGSLRLSCAASGSTFWFNDMGWYRQAPGKEREFVAAISSIGGSTYYADSVKGRFTISRDNAKNNVNLQMNSLKPEDTAVYYCAVEVVRVYRYDYWGQGTQVTVSS,low polyreactivity
9,QVQLVESGGGLVQAGGSLRLSCAASGSTFWFYAMGWYRQAPGTERELVAVISNSGSTYYADSVKGRFTISRDNAKNTVYLQMNSLKPEDTEVYYCNKDGGGDSYWYDYWGQGTQVTVSS,low polyreactivity
10,QVQLVESGGGLVQAGGSLRLSCAASGSTFWGNAMGWYRQAPGKERELVAAIDWSGGRTYYADSVKGRFTISRDNAKNTVYLQMNSLKPEDTAVYYCATRAWRGYGPYDYWGQGTQVTVSS,high polyreactivity
11,QVQLVESGGGLVQAGGSLRLSCAASGSTFWGNAMGWYRQAPGKERELVAAISNGGSTNYADSVKGRFTISRDNAKNTVYLQMNSLKPEDTAVYYCAADGHTSNGVSLHGYWGQGTQVTVSS,low polyreactivity
12,QVQLVESGGGLVQAGGSLRLSCAASGSTFWGNAMGWYRQAPGKERELVAAISWIGGGTYYADSVKGRFTISRDNAKNTVYLQMNSLKPEDTAVYYCAAKIFIRVHYYSYRMYYWGQGTQVTVSS,low polyreactivity
13,QVQLVESGGGLVQAGGSLRLSCAASGSTFWIYAMGWYIQAPGTERELVAAITLRSGSTYYADSVKGRFTISRDNAKNTVYLQMISLKPEDTAVYYCATDSWGVDRPNYNYWGQGTQVTVSS,low polyreactivity
14,QVQLVESGGGLVQAGGSLRLSCAASGSTFWKYVIGWYRQEPGKERELVAAITSRGGSTYADSVKGRFTISRDNAKNTVYLQMNSLKPEDTAVYYCAATKFWYYGYDYWGQGTQVTVSS,low polyreactivity
15,QVQLVESGGGLVQAGGSLRLSCAASGSTFWLYAMGWYRQAPGKERELVASISSRGGSTYYADSVKGRFTISRDNAKNTVYLQMNSLKPEDTAVYYCAAKDIRYDDDYWGQGTQVTVSS,low polyreactivity
16,QVQLVESGGGLVQAGGSLRLSCAASGSTFWTYTMGWYRQAPGKERELVAVISSTGGDTYYADSVKGRFTISRDNAKNTVYLQMNSLKPEDTAVYYCAARIRRWYAGYGGYYWGQGTQVTVSS,high polyreactivity
17,QVQLVESGGGLVQAGGSLRLSCAASGSTFWVYAMGWYRQAPGKERELVASITFSGSSTYYADSVKGRFTISRDNAKNTVYLQMNSLKPEDTAVYYCAAGEGGDRSRGYLSQYGYWGQGTQVTVSS,low polyreactivity
18,QVQLVESGGGLVQAGGSLRLSCAASGSTFWYAMGWYRQAPGKERELVAAITARGGRTYYADSVKGRFTISRDNAKHTVYLQLISLKPEDTAVYYCARLSYAGGQWIIGKYDYWGQGTQVTVSS,high polyreactivity
19,QVQLVESGGGLVQAGGSLRLSCAASGSTFWYYALGWYRQAPGKERELVAAIRWSDGSTYYADSVKGRFTSSRDNAKNTVYLQMNSLKPEDTAVYYCEYYYWGQGTQVTVSS,low polyreactivity
20,QVQLVESGGGLVQAGGSLRLSCAASGSTFWYYAMGWSRQAPGKERELVADITYSGVSTYYADSVKGRFTISRDNAKNTVYLQMNSLKPEDTAVYYCNAVWGSVKGYSGYYYWGPGTQVTVSS,low polyreactivity
21,QVQLVESGGGLVQAGGSLRLSCAASGSTFWYYAMGWYRQAPGKEREFVAAITTSAGRTYDADSVKGRFTISRDHAKNTVYLQMNSLKPEDTAVYYCAAEPRQYWEYNYWGQGTQVTVSS,high polyreactivity
22,QVQLVESGGGLVQAGGSLRLSCAASGSTFWYYAMGWYRQAPGKERELVAGITQSGGSTYYADSVKGRFTISRDNEKNTVYLQMNRLKPEDTAVYYCAKDGRVSGDFDYWGQGTQVTVSS,low polyreactivity

row,Sequence,polyreactivity (PSR sort gate)
1,QVQLVESGGGLVQAGGSLRLSCAASGSTFWYYAMGWYRQAPGKEREMVATIRWRGGSTYYADSVKGRFTISRDNAKNTLYLQMNSLKPEDTAVYYCAADTWAYVGYYYGFDYWGQGTQVTVSS,high polyreactivity
2,QVQLVESGGGLVQAGGSLRLSCAASGSTFWYYDMGWYRQAPGKERELVAAITSGGRTNYADSVKGRFTISRDNAKNTVYLQMNSLKPEDTAVYYCARGPLSHTALYWRGRYNYWGQGTQVTVSS,high polyreactivity
3,QVQLVESGGGLVQAGGSLRLSCAASGSTFWYYTMGWYRPAPGKERELVAGITSGGSTYYADSVKGRFTISRDYANNTVYLQMNSLKPEDTAVYYCTFYWYNYWGQGTQVTVSS,high polyreactivity
4,QVQLVESGGGLVQAGGSLRLSCAASGSTFYANAKGWYRQAPGKERELVAAISSTGGSTYYADSVKGRFTISRDNAKNTVYLQMNSLKPEDTAVYYCAARARWIVAYDLGYWGQGTQVTVSS,low polyreactivity
5,QVQLVESGGGLVQAGGSLRLSCAASGSTFYANGMGRYRQAPGKERELDAAISWSGGSTYYADSVKGRFTISRDNAKNTVYLQMNSLKPEDTAVYYCAAAYRSFINGRWYDYWGQGTQVTVSS,low polyreactivity
6,QVQLVESGGGLVQAGGSLRLSCAASGSTFYAYAMGSYRQSPGKERELVAVITSGGTTKYADSVKGRFTISRDNAKNTVYLQLNSLKPEDTAVYYCNVAGRDYAVRWGSFVFWGQGTQVTVSS,low polyreactivity
7,QVQLVESGGGLVQAGGSLRLSCAASGSTFYAYTMGWYRKAPGKERELVAGISRRGGTTYYADSVKGRFTISRDNAKNTVYLQMNSLKPEDTAVYYCAADKTKPQASEGYYAYYYWGQGTQVTVSS,low polyreactivity
8,QVQLVESGGGLVQAGGSLRLSCAASGSTFYDYAMGWYRQAPGKERELVAAMSSSGARTYYADSVKGRFTISRDNAKNSVYLQMNSLKPEDTAVYYCGAKPHTRTTCPSGYWGQATQVTVSS,high polyreactivity
9,QVQLVESGGGLVQAGGSLRLSCAASGSTFYDYAMGWYRQAPGKERELVAGIRNGGSTNYADSVKGRFTISRDNAKNTVYLQMNSLIPEDTAVYYCAAPRWDGFYSYYRVVWGIFDYWGQGTQVTVSS,low polyreactivity
10,QVQLVESGGGLVQAGGSLRLSCAASGSTFYDYAMGWYRQAPGKERELVASIDSGDSTNYADSVKGRFTISRDNAKNTVYLQMNSLKPEDTAVYYCAARVYSVADYYYWGQGTQVTVSS,low polyreactivity
11,QVQLVESGGGLVQAGGSLRLSCAASGSTFYDYVMGWYRQAPGKERELFAAISRTGASTYYADSVKGRFTISRDNAKNTVYLQMNSLKPVDTAVYYCAADSDTVRYYYWGQGTQVTVSS,high polyreactivity
12,QVQLVESGGGLVQAGGSLRLSCAASGSTFYENAMVWSRQAPGKDRELVAAISRSTGRTYYADSVKGRFTISRDNAKNTVYLQMNSLKPEDTAVYYCAARVYGRMYFWGQGTQVTVSS,high polyreactivity
13,QVQLVESGGGLVQAGGSLRLSCAASGSTFYFYAMGWYRQAPGKERELVAAITYSGDRTRYADSVKGRFTISRDNAKNTVYLQMNSLKPEDTAVYYCAARYVGARNAYRMGYWGQGTQVTVSS,high polyreactivity
14,QVQLVESGGGLVQAGGSLRLSCAASGSTFYFYARGWYRQAPGKERELVAVISSGGTTNYADSVKGRFTISRDNAKNTVYLQMNSLKPEDTAVYYCNAEPPRGYTVSSGGEMDYWGQGTQVTVSS,low polyreactivity
15,QVQLVESGGGLVQAGGSLRLSCAASGSTFYGNAMGWYRQATGKERELVAAIRWRGGRTYYADSVKGRFTISRDNAKNTVYLQMNSLKPEDTAVYYCNALPGVSHTQYDRVGYWGQGTQVTVSS,high polyreactivity
16,QVQLVESGGGLVQAGGSLRLSCAASGSTFYGNMGWYRQAPGKERALVAAITYRGTNTYYADSVKGRFTISRDNAKNTVYLQMNSLKPEDTAVYYCAAEYDVYQGRGRYYGYDYWGQGTQVTVSS,high polyreactivity
17,QVQLVESGGGLVQAGGSLRLSCAASGSTFYGYAMGGNRQAPGKERELVAAMTWGGASTYYADSVKGRFTIARDNAKNTVYLQMNSLKPEDTAVYYCATVGWGYQPYPFGMDYWGQGTQVTVSS,low polyreactivity
18,QVQLVESGGGLVQAGGSLRLSCAASGSTFYGYAMGWNRQAPGKERELVADIDSIAGSTYYADSVKGRFTISRDNAKNTVYLQMNSLKPEDTAVYYCAARRFDTALVLYDYWGQGTQVTVSS,low polyreactivity
19,QVQLVESGGGLVQAGGSLRLSCAASGSTFYGYAMGWYRQAPGKERELVAAIRSGGRTYYADSVKGRFTISRDNAKNTVYLQMNSLKPEDTAVYYCNARSFNYRTFGGKMGYWGQGTQVTVSS,high polyreactivity
20,QVQLVESGGGLVQAGGSLRLSCAASGSTFYGYGLGWYRPAPGKERELFAAITGSGDTTYYADSVKGRFTISRDNAKNTVYLQMNSLKPEDTAVYYCNARWHAEYDYWGQGTQVTVSS,low polyreactivity
21,QVQLVESGGGLVQAGGSLRLSCAASGSTFYGYTMGWYRQAPGKERELVAVITSGGSTYYADSVKGRFTISRDNAKNTVYLQMNSLKPEDTAVYYCAKRYGYPAYGRPWRIGRTYDYWGQGTQVTVSS,low polyreactivity
